In publication PMC4856986:
Changes are numbered by the printed parent chain.

Key:
SOX18-HMG (79 aa) [1] = biological target: T1, SOX18-HMG (79 aa) (Mus musculus, UniProt P43680 77-155); test: ITC
[2] = biological target: T2, ESRRB (DNA binding domain) (mouse, UniProt Q61539 100-186); test: EMSA and competition
T2 sequence: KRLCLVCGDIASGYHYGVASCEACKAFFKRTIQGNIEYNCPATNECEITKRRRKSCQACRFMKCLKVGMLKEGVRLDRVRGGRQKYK

SOX18-HMG (79 aa) [3] = biological target: T1, SOX18-HMG (79 aa); test: X-ray crystal structure
BRN2-POU = biological target: T3, BRN2-POU (mouse, UniProt P31360 264-415); test: EMSA
T3 sequence: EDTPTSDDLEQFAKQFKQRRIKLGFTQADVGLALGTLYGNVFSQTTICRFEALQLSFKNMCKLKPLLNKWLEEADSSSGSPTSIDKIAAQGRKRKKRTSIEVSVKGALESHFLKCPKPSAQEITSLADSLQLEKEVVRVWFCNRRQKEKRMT

OCT6-POU [4] = biological target: T4, OCT6-POU (mouse, UniProt P21952 245-396); test: EMSA
T4 sequence: T3 sequence with T3A, T5S, A74T, S83N, I84L, S103G, Q121H, S125G

OCT6-POU [5] = biological target: T4, OCT6-POU; test: EMSA competition
PAX9 = PAX9 (mouse, UniProt P47242 4-130); test: EMSA and competition
PAX9, sequence (P47242 4-130): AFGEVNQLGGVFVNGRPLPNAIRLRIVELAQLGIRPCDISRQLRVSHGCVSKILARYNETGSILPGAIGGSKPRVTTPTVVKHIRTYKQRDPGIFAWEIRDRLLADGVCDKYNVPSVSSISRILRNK

T1 sequence (P43680 77-155): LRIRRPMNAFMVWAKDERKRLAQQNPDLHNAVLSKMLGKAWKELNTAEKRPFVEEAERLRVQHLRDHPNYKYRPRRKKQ

B1: Prox1 15 bp (NAT decoy when unlabelled) (dsDNA)
DNA 1: CTAGCATTGTCTGGG
DNA 2: CCCAGACAATGCTAG
Ka (SOX18-HMG (79 aa) [1]): 2.47e+06 M⁻¹

B2: Esrrb element (Cy5/UL) (dsDNA)
DNA 1: TGGTGACCTTGGCT
DNA 2: AGCCAAGGTCACCA
binding result [2]: binds

B3: Prox1 crystal DNA, 16 bp with CG overhangs (dsDNA)
DNA 1: CACTAGCATTGTCTGGG
DNA 2: GCCCAGACAATGCTAGT
binding result (SOX18-HMG (79 aa) [3]): binds

B4: Cy5-Pore (dsDNA)
DNA 1: CACATTTGAAAGGCAAATGGAG
DNA 2: CTCCATTTGCCTTTCAAATGTG
binding result (BRN2-POU): binds
binding result (OCT6-POU [4]): binds

B5: UL-More (dsDNA)
DNA 1: TCCTCATGCATATGCATGAGGA
DNA 2: TCCTCATGCATATGCATGAGGA
binding result (OCT6-POU [5]): binds

B6: Pax element (Cy5/UL) (dsDNA)
DNA 1: AAGCATTTTCACGCATGAGTGCACAG
DNA 2: CTGTGCACTCATGCGTGAAAATGCTT
binding result (PAX9): binds
